Laboratory results reported in patent US20210122827A1.

Target: human GLP-1 receptor (human) (UniProt P43220)
Experiment: cell-based or functional assay

human GLP-1 receptor (human), sequence (P43220 24-463): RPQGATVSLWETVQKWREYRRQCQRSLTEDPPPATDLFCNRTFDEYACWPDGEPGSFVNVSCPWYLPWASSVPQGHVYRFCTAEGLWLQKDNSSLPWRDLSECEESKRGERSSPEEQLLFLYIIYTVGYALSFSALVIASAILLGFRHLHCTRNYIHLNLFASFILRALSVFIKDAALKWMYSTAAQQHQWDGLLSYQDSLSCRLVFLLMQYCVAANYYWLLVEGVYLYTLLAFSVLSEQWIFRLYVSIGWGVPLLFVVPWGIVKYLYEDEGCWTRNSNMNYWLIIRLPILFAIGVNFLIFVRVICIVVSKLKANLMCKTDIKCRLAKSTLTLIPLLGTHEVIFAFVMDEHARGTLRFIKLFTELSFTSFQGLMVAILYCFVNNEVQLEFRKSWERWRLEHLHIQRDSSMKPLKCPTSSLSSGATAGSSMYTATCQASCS

GMA102 (proprietary fusion protein of GLP-1R antibody and GLP-1)
EC50, CRE-Luciferase reporter gene assay on CHO-DHFR- cells co-expressing hGLP1R: 16 pM
